In patent US20240034774A1 (Gilead, published 2024):

Experiments:
gp120 SHIV SF162 P3 = gp120 SHIV SF162 P3 (SHIV SF162 P3); test: single-point ELISA at EC50 conc. of A-1
gp120 Bal = gp120 Bal (HIV (Bal)); test: single-point ELISA at EC50 conc. of A-1
gp120 CAAN = gp120 CAAN (HIV (CAAN)); test: single-point ELISA at EC50 conc. of A-1
BSA = BSA (UniProt P02769 25-607); test: single-point ELISA, BSA control

Row | Binder | ELISA A450 (gp120 SHIV SF162 P3) [A450] | ELISA A450 (gp120 Bal) [A450] | ELISA A450 (gp120 CAAN) [A450] | ELISA A450 (BSA) [A450]
1 | 1.36.32-1 (antibody, human IgG1, kappa) heavy: QVQLVQSGAEVKKPGASVRVSCKASGYNIRDYFMHWWRQAPGQGLQWVGWINPKTGQPNNPRQFQGRVTMTRHASWDFDTFSAYMDLSRLRSDDTATYFCARQRTDYWDFDVWGQGTMVTVSSASTKGPSVFPLAPSSKSTSGGTAALGCLVKDYFPEPVTVSWNSGALTSGVHTFPAVLQSSGLYSLSSVVTVPSSSLGTQTYICNVNHKPSNTKVDKKVEPKSCDKTHTCPPCPAPELLAGPDVFLFPPKPKDTLMISRTPEVTCVVVDVSHEDPEVKFNWYVDGVEVHNAKTKPREEQYNSTYRVVSVLTVLHQDWLNGKEYKCKVSNKALPLPEEKTISKAKGQPREPQVYTLPPSREEMTKNQVSLTCLVKGFYPSDIAVEWESNGQPENNYKTTPPVLDSDGSFFLYSKLTVDKSRWQQGNVFSCSVLHEALHSHYTQKSLSLSPGK light: DIQMTQSPSSLSASVGDTVTITCQANGYLNWYQQRRGKAPKLLIYDGSKLERGVPSRFSGRRWGQEYTLTISSLQPEDIATYFCQVYEFVTPGTRLDLKRTVAAPSVFIFPPSDEQLKSGTASVVCLLNNFYPREAKVQWKVDNALQSGNSQESVTEQDSKDSTYSLSSTLTLSKADYEKHKVYACEVTHQGLSSPVTKSFNRGEC | 0.18 | 0.96 | 0.5 | 0.07
2 | 1.35.33-1 (antibody, human IgG1, kappa) heavy: QVQLVQSGAEVKKPGASVRVSCKASGYNIRDYFMHWWRQAPGQGLQWVGWINPKTGQPNNPRQFQGRVTMTRHASWDFDTFSFYMDLSRLRSDDTATYFCARQRTDYWDFDVWGQGTMVTVSSASTKGPSVFPLAPSSKSTSGGTAALGCLVKDYFPEPVTVSWNSGALTSGVHTFPAVLQSSGLYSLSSVVTVPSSSLGTQTYICNVNHKPSNTKVDKKVEPKSCDKTHTCPPCPAPELLAGPDVFLFPPKPKDTLMISRTPEVTCVVVDVSHEDPEVKFNWYVDGVEVHNAKTKPREEQYNSTYRVVSVLTVLHQDWLNGKEYKCKVSNKALPLPEEKTISKAKGQPREPQVYTLPPSREEMTKNQVSLTCLVKGFYPSDIAVEWESNGQPENNYKTTPPVLDSDGSFFLYSKLTVDKSRWQQGNVFSCSVLHEALHSHYTQKSLSLSPGK light: DIQMTQSPSSLSASVGDTVTITCQANGYLNWYQQRRGKAPKLLIYDGSNLERGVPSRFSGRRWGQEYTLTISSLQPEDIATYFCQVYEFVVPGTNLDIKRTVAAPSVFIFPPSDEQLKSGTASVVCLLNNFYPREAKVQWKVDNALQSGNSQESVTEQDSKDSTYSLSSTLTLSKADYEKHKVYACEVTHQGLSSPVTKSFNRGEC | 0.65 | 0.9 | 0.91 | 0.06
3 | 1.35.34-1 (antibody, human IgG1, kappa) heavy: QVQLVQSGAEVKKPGASVRVSCKASGYNIRDYFMHWWRQAPGQGLQWVGWINPKTGQPNNPRQFQGRVTMTRHASWDFDTFSFYMDLSRLRSDDTATYFCARQRTDYWDFDVWGQGTMVTVSSASTKGPSVFPLAPSSKSTSGGTAALGCLVKDYFPEPVTVSWNSGALTSGVHTFPAVLQSSGLYSLSSVVTVPSSSLGTQTYICNVNHKPSNTKVDKKVEPKSCDKTHTCPPCPAPELLAGPDVFLFPPKPKDTLMISRTPEVTCVVVDVSHEDPEVKFNWYVDGVEVHNAKTKPREEQYNSTYRVVSVLTVLHQDWLNGKEYKCKVSNKALPLPEEKTISKAKGQPREPQVYTLPPSREEMTKNQVSLTCLVKGFYPSDIAVEWESNGQPENNYKTTPPVLDSDGSFFLYSKLTVDKSRWQQGNVFSCSVLHEALHSHYTQKSLSLSPGK light: DIQMTQSPSSLSASVGDTVTITCQANGYLNWYQQRRGKAPKLLIYDGSNLERGVPSRFSGRRWGQEYTLTISSLQPEDIATYFCQVYEFVTPGTRLDIKRTVAAPSVFIFPPSDEQLKSGTASVVCLLNNFYPREAKVQWKVDNALQSGNSQESVTEQDSKDSTYSLSSTLTLSKADYEKHKVYACEVTHQGLSSPVTKSFNRGEC | 0.58 | 1 | 0.85 | 0.06
4 | 1.36.34-1 (antibody, human IgG1, kappa) heavy: QVQLVQSGAEVKKPGASVRVSCKASGYNIRDYFMHWWRQAPGQGLQWVGWINPKTGQPNNPRQFQGRVTMTRHASWDFDTFSAYMDLSRLRSDDTATYFCARQRTDYWDFDVWGQGTMVTVSSASTKGPSVFPLAPSSKSTSGGTAALGCLVKDYFPEPVTVSWNSGALTSGVHTFPAVLQSSGLYSLSSVVTVPSSSLGTQTYICNVNHKPSNTKVDKKVEPKSCDKTHTCPPCPAPELLAGPDVFLFPPKPKDTLMISRTPEVTCVVVDVSHEDPEVKFNWYVDGVEVHNAKTKPREEQYNSTYRVVSVLTVLHQDWLNGKEYKCKVSNKALPLPEEKTISKAKGQPREPQVYTLPPSREEMTKNQVSLTCLVKGFYPSDIAVEWESNGQPENNYKTTPPVLDSDGSFFLYSKLTVDKSRWQQGNVFSCSVLHEALHSHYTQKSLSLSPGK light: DIQMTQSPSSLSASVGDTVTITCQANGYLNWYQQRRGKAPKLLIYDGSNLERGVPSRFSGRRWGQEYTLTISSLQPEDIATYFCQVYEFVTPGTRLDIKRTVAAPSVFIFPPSDEQLKSGTASVVCLLNNFYPREAKVQWKVDNALQSGNSQESVTEQDSKDSTYSLSSTLTLSKADYEKHKVYACEVTHQGLSSPVTKSFNRGEC | 0.15 | 1.01 | 0.43 | 0.07
5 | 1.31.35-1 (antibody, human IgG1, kappa, V domains shown) VH: QVQLVQSGAEVTKPGASVRVSCEASGYNIRDYFIHWWRQAPGQGLQWVGWINPKTGQPNNPRQFQGRVSLTRHASWDFDTFSFYMDLKALRSDDTATYFCARQRSDYWDFDVWGSGTQVTVSS VL: DIQMTQSPSSLSASVGDRVTITCQANGYLNWYQQKPGKAPKLLIYDGSNLETGVPSRFSGSRWGQEYTLTISSLQPEDIATYFCQVYEFVGPGTNLDIKR | 0.61 | 0.9 | 0.77 | 0.06
6 | 1.33.35-1 (antibody, human IgG1, kappa, V domains shown) VH: QVQLVQSGAEVKKPGASVRVSCKASGYNIRDYFIHWWRQAPGQGLQWVGWINPKTGQPNNPRQFQGRVTLTRHASWDFDTFSFYMDLKALRSDDTATYFCARQRSDYWDFDVWGSGTQVTVSS VL: DIQMTQSPSSLSASVGDRVTITCQANGYLNWYQQKPGKAPKLLIYDGSNLETGVPSRFSGSRWGQEYTLTISSLQPEDIATYFCQVYEFVGPGTNLDIKR | 0.71 | 1.03 | 0.81 | 0.07
7 | 1.34.35-1 (antibody, human IgG1, kappa, V domains shown) VH: QVQLVQSGAEVKKPGASVRVSCKASGYNIRDYFIHWWRQAPGQGLQWVGWINPKTGQPNNPRQFQGRVTLTRHASWDFDTFSFYMDLKALRSDDTAVYFCARQRTDYWDFDVWGSGTQVTVSS VL: DIQMTQSPSSLSASVGDRVTITCQANGYLNWYQQKPGKAPKLLIYDGSNLETGVPSRFSGSRWGQEYTLTISSLQPEDIATYFCQVYEFVGPGTNLDIKR | 0.56 | 0.94 | 0.77 | 0.06
8 | 1.32.35-1 (antibody, human IgG1, kappa, V domains shown) VH: QVQLVQSGAEVTKPGASVRVSCEASGYNIRDYFIHWWRQAPGQGLQWVGWINPKTGQPNNPRQFQGRVSLTRHASWDFDTFSFYMDLKALRSDDTAVYFCARQRTDYWDFDVWGSGTQVTVSS VL: DIQMTQSPSSLSASVGDRVTITCQANGYLNWYQQKPGKAPKLLIYDGSNLETGVPSRFSGSRWGQEYTLTISSLQPEDIATYFCQVYEFVGPGTNLDIKR | 0.5 | 0.89 | 0.59 | 0.06
